Data from patent publication US20050282743A1, “Molecular interactions in cells” (Arbor Vita Corporation, priority 2001, published 2005).
Ends that are not written are not given here. * marks the point of attachment. Biotin = O=C1N[C@H]2[C@H](CS[C@H]2CCCCC(=O)*)N1

Legend:
Assay in all cases: G' assay (10 uM PL peptide), results of TABLE 7 and TABLE 12
Type in all cases: binding
[1] = biological target: T1, PDZ protein (GST-PDZ fusion) (Homo sapiens, UniProt Q9BXL6); conditions: PDZ CARD14, PDZ Domain 1
T1 construct: made in house; host or cells: E. coli (DH5alpha, BL21 or JM109)
T1 sequence (Q9BXL6 1-1004): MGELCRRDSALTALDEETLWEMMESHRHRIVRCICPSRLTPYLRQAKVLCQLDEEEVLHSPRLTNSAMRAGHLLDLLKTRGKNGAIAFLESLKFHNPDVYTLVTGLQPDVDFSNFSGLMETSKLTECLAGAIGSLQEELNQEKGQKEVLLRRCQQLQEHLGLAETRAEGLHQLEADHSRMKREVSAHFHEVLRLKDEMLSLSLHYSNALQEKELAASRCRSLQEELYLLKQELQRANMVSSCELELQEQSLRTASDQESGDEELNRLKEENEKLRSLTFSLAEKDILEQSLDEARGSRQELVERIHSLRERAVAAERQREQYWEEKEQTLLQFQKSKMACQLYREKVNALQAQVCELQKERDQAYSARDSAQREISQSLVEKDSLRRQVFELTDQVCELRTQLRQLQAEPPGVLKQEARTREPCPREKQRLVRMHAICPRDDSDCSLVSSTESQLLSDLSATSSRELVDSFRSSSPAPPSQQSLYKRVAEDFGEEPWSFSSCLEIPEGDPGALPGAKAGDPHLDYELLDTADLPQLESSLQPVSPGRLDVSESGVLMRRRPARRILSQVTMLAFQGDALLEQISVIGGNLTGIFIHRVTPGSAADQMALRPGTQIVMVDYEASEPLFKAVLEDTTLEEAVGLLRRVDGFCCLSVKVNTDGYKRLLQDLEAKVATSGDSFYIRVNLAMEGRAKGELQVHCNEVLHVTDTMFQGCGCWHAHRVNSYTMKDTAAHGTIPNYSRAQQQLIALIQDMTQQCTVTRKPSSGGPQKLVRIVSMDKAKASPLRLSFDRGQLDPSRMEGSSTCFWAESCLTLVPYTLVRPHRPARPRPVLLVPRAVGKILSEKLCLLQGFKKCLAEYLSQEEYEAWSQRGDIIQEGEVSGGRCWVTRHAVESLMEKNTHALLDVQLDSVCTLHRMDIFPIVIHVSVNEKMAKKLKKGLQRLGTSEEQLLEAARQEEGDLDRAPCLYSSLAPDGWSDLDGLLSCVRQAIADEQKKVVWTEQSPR
In short: (§1)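 Biotinylated PL peptides at 10 uM (vs 20 uM in G^0 assay) bound to GST-PDZ fusions; PDZ protein at 5 ug/ml unless another concentration listed. Bound peptide read as A450 nm, classified 0–5 (0 = A450 0; 5 = A450 >4 repeated).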

[2] = biological target: T2, PDZ protein (GST-PDZ fusion) (Homo sapiens, UniProt Q14168); conditions: PDZ MPP2, PDZ Domain 1
T2 construct: made in house; host or cells: E. coli (DH5alpha, BL21 or JM109)
T2 sequence (Q14168 1-576): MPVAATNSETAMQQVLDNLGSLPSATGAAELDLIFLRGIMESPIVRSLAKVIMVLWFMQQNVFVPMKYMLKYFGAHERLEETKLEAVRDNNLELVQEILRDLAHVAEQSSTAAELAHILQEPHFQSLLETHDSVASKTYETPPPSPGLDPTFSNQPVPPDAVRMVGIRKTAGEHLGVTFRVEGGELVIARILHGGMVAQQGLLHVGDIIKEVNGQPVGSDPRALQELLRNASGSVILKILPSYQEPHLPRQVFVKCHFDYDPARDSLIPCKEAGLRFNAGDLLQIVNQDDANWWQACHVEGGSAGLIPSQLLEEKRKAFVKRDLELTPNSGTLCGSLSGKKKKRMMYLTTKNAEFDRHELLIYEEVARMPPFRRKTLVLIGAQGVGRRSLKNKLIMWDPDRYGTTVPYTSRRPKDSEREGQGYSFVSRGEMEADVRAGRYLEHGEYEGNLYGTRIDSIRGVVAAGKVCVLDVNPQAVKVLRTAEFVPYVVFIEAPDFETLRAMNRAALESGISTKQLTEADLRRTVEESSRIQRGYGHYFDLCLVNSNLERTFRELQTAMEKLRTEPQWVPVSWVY
In short: as §1

[3] = tested on: PDZ protein (GST-PDZ fusion); conditions: PDZ HEMBA 1003117, PDZ Domain 1
In short: as §1

Measured: Classification

5-HT 3A (serotonin receptor 3A) (Biotin-LAVLAYSITLVMLWSIWQYA)
2 (A450 nm 1-2): [1] | [2] | [3]
